Measured values as given in PMC5410052.

What was measured:
[1] = target: human MMP-2 (gelatinase A) (human) (UniProt P08253); assay: enzyme inhibition assay (quenched fluorescent peptide substrate); 60/60/250/500 nM MMP-1/-2/-7/-14cd incubated with 0.98-1000 nM (N-)TIMPs for 30 min at room temperature, then 1 uM M-2350 substrate; KI from the equation for slow tight-binding inhibitors
[2] = target: human MMP-1 (collagenase 1) (human) (UniProt P03956); assay: as above
[3] = target: human MMP-7 (matrilysin) (human) (UniProt P09237); assay: as above
[4] = target: catalytic domain of human MMP-14 (cdMMP-14) (human) (UniProt P50281); assay: as above
[5] = target: human MMP-2 (gelatinase A) (human) (UniProt P08253)
[6] = target: human MMP-1 (collagenase 1) (human) (UniProt P03956)
[7] = target: human MMP-7 (matrilysin) (human) (UniProt P09237)
[8] = target: catalytic domain of human MMP-14 (cdMMP-14) (human) (UniProt P50281)

UniProt P09237, sequence (P09237 95-267): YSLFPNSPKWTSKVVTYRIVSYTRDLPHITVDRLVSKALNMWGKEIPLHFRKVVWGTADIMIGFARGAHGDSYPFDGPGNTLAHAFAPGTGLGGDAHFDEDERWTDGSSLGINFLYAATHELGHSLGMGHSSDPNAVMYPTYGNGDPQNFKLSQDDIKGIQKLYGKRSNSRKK
UniProt P03956, sequence (P03956 100-469): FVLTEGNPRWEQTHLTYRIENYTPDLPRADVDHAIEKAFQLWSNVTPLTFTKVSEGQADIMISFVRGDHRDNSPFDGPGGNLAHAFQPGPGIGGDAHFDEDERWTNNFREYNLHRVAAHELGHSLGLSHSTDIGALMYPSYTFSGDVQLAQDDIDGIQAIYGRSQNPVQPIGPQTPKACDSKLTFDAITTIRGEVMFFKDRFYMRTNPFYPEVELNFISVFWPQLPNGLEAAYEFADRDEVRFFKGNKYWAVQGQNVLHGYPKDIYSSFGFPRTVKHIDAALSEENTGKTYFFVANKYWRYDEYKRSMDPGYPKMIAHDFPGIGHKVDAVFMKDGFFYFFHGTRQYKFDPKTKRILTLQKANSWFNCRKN
UniProt P08253, sequence (P08253 110-660): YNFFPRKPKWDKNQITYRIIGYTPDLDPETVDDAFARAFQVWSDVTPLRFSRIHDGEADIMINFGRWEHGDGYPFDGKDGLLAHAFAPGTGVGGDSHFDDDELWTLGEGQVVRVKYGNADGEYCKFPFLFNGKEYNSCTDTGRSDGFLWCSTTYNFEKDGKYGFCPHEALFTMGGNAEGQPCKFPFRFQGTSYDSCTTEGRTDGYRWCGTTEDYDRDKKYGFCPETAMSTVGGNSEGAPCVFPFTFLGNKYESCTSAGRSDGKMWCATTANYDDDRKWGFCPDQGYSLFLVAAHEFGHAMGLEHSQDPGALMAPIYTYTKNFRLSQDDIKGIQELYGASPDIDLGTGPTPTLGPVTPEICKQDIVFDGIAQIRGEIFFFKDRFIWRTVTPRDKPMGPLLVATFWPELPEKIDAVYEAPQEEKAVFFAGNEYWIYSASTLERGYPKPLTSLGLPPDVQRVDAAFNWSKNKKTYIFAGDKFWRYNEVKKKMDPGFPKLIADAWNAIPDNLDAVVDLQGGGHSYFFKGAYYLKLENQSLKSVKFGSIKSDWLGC

Ki [1] [nM] | Ki [2] [nM] | Ki [3] [nM] | Ki [4] [nM] | IC50 of inhibition of MMP-2 cleavage of a quenched fluorescent peptide substrate [5] [nM] | IC50 of inhibition of MMP-1 cleavage of a quenched fluorescent peptide substrate [6] [nM] | IC50 of inhibition of MMP-7 cleavage of a quenched fluorescent peptide substrate [7] [nM] | IC50 of inhibition of cdMMP-14 cleavage of a quenched fluorescent peptide substrate [8] [nM] | Substance
11 | 7.21 | 4.62 |  |  |  |  |  | N-terminal domain of human TIMP-1 (N-TIMP-1) (domain or fragment)
0.8 | 0.65 | 2.86 | 3.96 | 6 | 3 | 38 | 72 | N-terminal domain of human TIMP-2 (N-TIMP-2) (domain or fragment)
